Laboratory results published in publication PMC7559355.
Where two headings read alike, the source gives them in different places.

Legend:
[1] = molecular target: Radiolabeled FabA (3H-labeled FabA) (rabbit); assay: SEC; radio-SEC; 3H-FabA (0.57 or 5.7 µM) incubated in cynomolgus monkey vitreous humor supplemented with 50, 100 and 250 µM CSA, 37 °C
[2] = molecular target: FabA (rabbit Fab with the anti-HSA nanobody ALB8 fused to the C-terminus of the heavy chain) (rabbit); assay: SPR; Fab captured by its His6 tag on an immobilised anti-His antibody (CM3 chip, about 15 RU); albumin 22.2-1800 nM injected; HBS-P+ (10 mM HEPES, 150 mM NaCl, pH 7.4, 0.05% P20), 25 °C; Langmuir 1:1 model
[3] = molecular target: Radiolabeled FabA (3H-labeled FabA) (rabbit); assay: SEC; radio-SEC of dosing formulations, 3H-FabA with equimolar albumin; 100 mM sodium phosphate pH 7.4, 10% ethanol
[4] = molecular target: Radiolabeled FabA (3H-labeled FabA) (rabbit); assay: SEC; radio-SEC; 3H-FabA (0.57 or 5.7 µM) incubated in cynomolgus monkey vitreous humor at endogenous albumin (0.53 µM), 37 °C
[5] = molecular target: FabA (rabbit Fab with the anti-HSA nanobody ALB8 fused to the C-terminus of the heavy chain) (rabbit); assay: SPR; Fab captured by its His6 tag on an immobilised anti-His antibody (CM3 chip, about 15 RU); albumin 22.2-1800 nM injected; HBS-P+ (10 mM HEPES, 150 mM NaCl, pH 7.4, 0.05% P20), 25 °C; Langmuir 1:1 model; remark: listed apart in the source
[6] = molecular target: Radiolabeled FabA (3H-labeled FabA) (rabbit); assay: as above
[7] = molecular target: Radiolabeled FabA (3H-labeled FabA) (rabbit)

| stoichiometry N [1] | Kd [2] [nM] | koff [2] [s⁻¹] | kon [2] [M⁻¹ s⁻¹] | stoichiometry N [3] | stoichiometry N [4] | Kd [5] [nM] | Kd [6] [nM] | vitreous humor exposure (AUCinf) of 3H-FabA in rabbits after intravitreal injection of 0.05 mg co-formulated with 1 or 15 nmol HSA (104 and 230 h∙nmol/mL; FabB control with 1 nmol HSA 72.8) [7] [nmol·h/mL] | vitreous humor half-life (t1/2) of 3H-FabA in rabbits after intravitreal injection of 0.05 mg co-formulated with 1 or 15 nmol HSA (58.0 and 149 h; FabB control with 1 nmol HSA 52.1 h) [7] [h] | Substance |
| --- | --- | --- | --- | --- | --- | --- | --- | --- | --- | --- |
| 2 | 66 | 0.0065 | 99000 | 1 | 1 | – | – | – | – | Cynomolgus serum albumin (from UniProt A2V9Z4 25-608) (natural protein) |
| – | 55 | – | – | – | – | 99 | 97 | 230 | 149 | Human serum albumin (from UniProt P02768 25-609) (natural protein) |
